*1 amine or outer side, *2 acyl side, *3 side chain or, on linkers, in order; H or OH if unused. Where a SMILES comes first, the peptide text is derived from it. Bridges are numbered along the chain shown (N, C = ends). Roman numbers before positions name the chains, in order. Where no end group is shown, it is not given here. [ ]: non-standard residue; d: D form. X1 = O=C(CCOCCOCCOCCOCCOCCOCCOCCOCCOCCOCCOCCOCCOCCOCCOCCOCCOCCOCCOCCOCCOCCC(=O)[*:2])[*:1]; CO(CH2CH2O)5CH2CH2CO = O=C(CCOCCOCCOCCOCCOCCC(=O)[*:2])[*:1]; Lys(Me2) = CN(C)CCCC[C@H](N)C(=O)O
target: T1, biotinylated recombinant human IL-17A (rhIL-17, R&D Systems #317-ILB) (human, UniProt Q16552 24-155, biotinylated); assay: not given; settings: both partners purified
T1 construct: IL-17A, human, recombinant; also called Biotinylated IL-17A; source: bought: R&D Systems
T1 sequence (Q16552 24-155): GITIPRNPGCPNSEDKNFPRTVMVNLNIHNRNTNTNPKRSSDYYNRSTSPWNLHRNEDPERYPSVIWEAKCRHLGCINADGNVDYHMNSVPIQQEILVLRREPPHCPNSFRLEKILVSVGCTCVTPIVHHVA

| Molecule | IC50 |
| --- | --- |
| Ac-IVVTMPADLWDWIRK (not fully specified (C-terminus), analogue of peptide 2, K at position 15; made on Rink resin; a C-terminal amide is surmised; source: synthetic peptide) [peptide 3] | 66 nM |
| Ac-IHVTMPADLWDWIRA (not fully specified (C-terminus), analogue of peptide 2, H at position 2; made on Rink resin; a C-terminal amide is surmised; also called V2H; source: synthetic peptide) [peptide 18] | 45 nM |
| Ac-IQVTMPADLWDWIRA (not fully specified (C-terminus), analogue of peptide 2, Q at position 2; made on Rink resin; a C-terminal amide is surmised; source: synthetic peptide) [peptide 19] | 71 nM |
| Ac-IVVTMPADLWDWIAA (not fully specified (C-terminus), analogue of peptide 2, A at position 14; made on Rink resin; a C-terminal amide is surmised; source: synthetic peptide) [peptide 4] | 172 nM |
| Ac-IVVAMPADLWDWIRA (not fully specified (C-terminus), analogue of peptide 2, A at position 4; made on Rink resin; a C-terminal amide is surmised; source: synthetic peptide) [peptide 14] | 195 nM |
| Ac-IWVTMPADLWDWIRA (not fully specified (C-terminus), analogue of peptide 2, W at position 2; made on Rink resin; a C-terminal amide is surmised; source: synthetic peptide) [peptide 22] | 522 nM |
| Ac-IVVTMAADLWDWIRA (not fully specified (C-terminus), analogue of peptide 2, A at position 6; made on Rink resin; a C-terminal amide is surmised; source: synthetic peptide) [peptide 12] | 2650 nM |
| Ac-IVVTMPADLWDWARA (not fully specified (C-terminus), analogue of peptide 2, A at position 13; made on Rink resin; a C-terminal amide is surmised; source: synthetic peptide) [peptide 5] | 402 nM |
| Ac-IAVTMPADLWDWIRA (not fully specified (C-terminus), analogue of peptide 2, A at position 2; made on Rink resin; a C-terminal amide is surmised; source: synthetic peptide) [peptide 16] | 149 nM |
| Ac-IVVTMPADLWDWIMA (not fully specified (C-terminus), analogue of peptide 2, M at position 14; made on Rink resin; a C-terminal amide is surmised; source: synthetic peptide) [peptide 27] | 31 nM |
| Ac-IRVTMPADLWDWIRA (not fully specified (C-terminus), analogue of peptide 2, R at position 2; made on Rink resin; a C-terminal amide is surmised; source: synthetic peptide) [peptide 20] | 117 nM |
| Ac-IVVTMPADLWDWINA (not fully specified (C-terminus), analogue of peptide 2, N at position 14; made on Rink resin; a C-terminal amide is surmised; source: synthetic peptide) [peptide 28] | 26 nM |
| Ac-IVVTMPADAWDWIRA (not fully specified (C-terminus), analogue of peptide 2, A at position 9; made on Rink resin; a C-terminal amide is surmised; source: synthetic peptide) [peptide 9] | 640 nM |
| Ac-IVVTMPADLADWIRA (not fully specified (C-terminus), analogue of peptide 2, A at position 10; made on Rink resin; a C-terminal amide is surmised; source: synthetic peptide) [peptide 8] | 524 nM |
| Ac-IVVTMPADLWAWIRA (not fully specified (C-terminus), analogue of peptide 2, A at position 11; made on Rink resin; a C-terminal amide is surmised; source: synthetic peptide) [peptide 7] | 474 nM |
| Ac-IVVTMPADLWDAIRA (analogue of peptide 2, A at position 12; made on Rink resin; a C-terminal amide is surmised; also called W12A variant; source: synthetic peptide) [peptide 6] | 7450 nM |
| Ac-ITVTMPADLWDWIRA (not fully specified (C-terminus), analogue of peptide 2, T at position 2; made on Rink resin; a C-terminal amide is surmised; also called V2T; source: synthetic peptide) [peptide 21] | 31 nM |
| Ac-IYVTMPADLWDWIRA (not fully specified (C-terminus), analogue of peptide 2, Y at position 2; made on Rink resin; a C-terminal amide is surmised; source: synthetic peptide) [peptide 23] | 64 nM |
| Ac-IVATMPADLWDWIRA (not fully specified (C-terminus), analogue of peptide 2, A at position 3; made on Rink resin; a C-terminal amide is surmised; source: synthetic peptide) [peptide 15] | 5720 nM |
| Ac-AVVTMPADLWDWIRA (not fully specified (C-terminus), analogue of peptide 2, A at position 1; made on Rink resin; a C-terminal amide is surmised; source: synthetic peptide) [peptide 17] | 167 nM |
| Ac-IVVTAPADLWDWIRA (not fully specified (C-terminus), analogue of peptide 2, A at position 5; made on Rink resin; a C-terminal amide is surmised; source: synthetic peptide) [peptide 13] | 11 nM |
| Ac-IVVTMPAALWDWIRA (not fully specified (C-terminus), analogue of peptide 2, A at position 8; made on Rink resin; a C-terminal amide is surmised; source: synthetic peptide) [peptide 10] | 4020 nM |
| Ac-IVVTMPADLWDWIRA (not fully specified (C-terminus), analogue of peptide 1 with lysine to arginine at position 14; parent of the alanine scan; made on Rink resin; a C-terminal amide is surmised; source: synthetic peptide) [peptide 2] | 80 nM |

target: T2, human IL-17A (Homo sapiens, UniProt Q16552); assay: BJ human fibroblast cell assay, IL-17A stimulated GRO-α production; type: cell-based; settings: BJ human fibroblast cells, 1 ng/ml human IL-17A
T2 construct: host or cells: added to BJ human fibroblasts (ATCC CRL2522)
Description: For inhibitor screen, human BJ fibroblast cells (ATCC CRL2522) (American Type Culture Collection, VA) were used. For mouse cell based assay MLE-12 mouse epithelial cells (ATCC CRL2110) were used. Both cell lines were maintained in ATCC recommended media.

T2 sequence (Q16552 24-155): as above

| Molecule | IC50 |
| --- | --- |
| CC[C@H](C)[C@H](NC(C)=O)C(=O)N[C@H](C(=O)N[C@H](C(=O)N[C@H](C(=O)N[C@H](C(=O)N1CCC[C@H]1C(=O)N[C@@H](CCCCNC(=O)CCOCCOCCOCCOCCOCCC(=O)NCCCC[C@H](NC(=O)[C@@H]1CCCN1C(=O)[C@@H](NC(=O)[C@@H](NC(=O)[C@@H](NC(=O)[C@@H](NC(=O)[C@@H](NC(C)=O)[C@@H](C)CC)[C@@H](C)O)C(C)C)[C@@H](C)O)[C@@H](C)CC)C(=O)N[C@@H](CC(=O)O)C(=O)N[C@@H](CC(C)C)C(=O)N[C@@H](Cc1c[nH]c2ccccc12)C(=O)N[C@@H](CC(=O)O)C(=O)N[C@@H](Cc1c[nH]c2ccccc12)C(=O)N[C@H](C(=O)N[C@@H](CC(N)=O)C(=O)N[C@@H](CCCCN(C)C)C(N)=O)[C@@H](C)CC)C(=O)N[C@@H](CC(=O)O)C(=O)N[C@@H](CC(C)C)C(=O)N[C@@H](Cc1c[nH]c2ccccc12)C(=O)N[C@@H](CC(=O)O)C(=O)N[C@@H](Cc1c[nH]c2ccccc12)C(=O)N[C@H](C(=O)N[C@@H](CC(N)=O)C(=O)N[C@@H](CCCCN(C)C)C(N)=O)[C@@H](C)CC)[C@@H](C)CC)[C@@H](C)O)C(C)C)[C@@H](C)O [Compound 42] (I: Ac-ITVTIPKDLWDWIN[Lys(Me2)]-NH2 / II: Ac-ITVTIPKDLWDWIN[Lys(Me2)]-NH2; linker I:7-II:7 via CO(CH2CH2O)5CH2CH2CO) | 24 nM |
| CC[C@H](C)[C@H](NC(C)=O)C(=O)N[C@H](C(=O)N[C@H](C(=O)N[C@@H](CCCCNC(=O)CCOCCOCCOCCOCCOCCC(=O)NCCCC[C@H](NC(=O)[C@@H](NC(=O)[C@@H](NC(=O)[C@@H](NC(C)=O)[C@@H](C)CC)[C@@H](C)O)C(C)C)C(=O)N[C@H](C(=O)N1CCC[C@H]1C(=O)N[C@@H](C)C(=O)N[C@@H](CC(=O)O)C(=O)N[C@@H](CC(C)C)C(=O)N[C@@H](Cc1c[nH]c2ccccc12)C(=O)N[C@@H](CC(=O)O)C(=O)N[C@@H](Cc1c[nH]c2ccccc12)C(=O)N[C@H](C(=O)N[C@@H](CC(N)=O)C(=O)N[C@@H](CCCCN(C)C)C(N)=O)[C@@H](C)CC)[C@@H](C)CC)C(=O)N[C@H](C(=O)N1CCC[C@H]1C(=O)N[C@@H](C)C(=O)N[C@@H](CC(=O)O)C(=O)N[C@@H](CC(C)C)C(=O)N[C@@H](Cc1c[nH]c2ccccc12)C(=O)N[C@@H](CC(=O)O)C(=O)N[C@@H](Cc1c[nH]c2ccccc12)C(=O)N[C@H](C(=O)N[C@@H](CC(N)=O)C(=O)N[C@@H](CCCCN(C)C)C(N)=O)[C@@H](C)CC)[C@@H](C)CC)C(C)C)[C@@H](C)O [Compound 40] (I: Ac-ITVKIPADLWDWIN[Lys(Me2)]-NH2 / II: Ac-ITVKIPADLWDWIN[Lys(Me2)]-NH2; linker I:4-II:4 via CO(CH2CH2O)5CH2CH2CO) | 3370 nM |
| CC[C@H](C)[C@H](NC(C)=O)C(=O)N[C@H](C(=O)N[C@H](C(=O)N[C@@H](CCCCNC(=O)CCOCCOCCOCCOCCOCCOCCOCCOCCOCCOCCOCCOCCOCCOCCOCCOCCOCCOCCOCCOCCOCCC(=O)NCCCC[C@H](NC(=O)[C@@H](NC(=O)[C@@H](NC(=O)[C@@H](NC(C)=O)[C@@H](C)CC)[C@@H](C)O)C(C)C)C(=O)N[C@H](C(=O)N1CCC[C@H]1C(=O)N[C@@H](C)C(=O)N[C@@H](CC(=O)O)C(=O)N[C@@H](CC(C)C)C(=O)N[C@@H](Cc1c[nH]c2ccccc12)C(=O)N[C@@H](CC(=O)O)C(=O)N[C@@H](Cc1c[nH]c2ccccc12)C(=O)N[C@H](C(=O)N[C@@H](CC(N)=O)C(=O)N[C@@H](CCCCN(C)C)C(N)=O)[C@@H](C)CC)[C@@H](C)CC)C(=O)N[C@H](C(=O)N1CCC[C@H]1C(=O)N[C@@H](C)C(=O)N[C@@H](CC(=O)O)C(=O)N[C@@H](CC(C)C)C(=O)N[C@@H](Cc1c[nH]c2ccccc12)C(=O)N[C@@H](CC(=O)O)C(=O)N[C@@H](Cc1c[nH]c2ccccc12)C(=O)N[C@H](C(=O)N[C@@H](CC(N)=O)C(=O)N[C@@H](CCCCN(C)C)C(N)=O)[C@@H](C)CC)[C@@H](C)CC)C(C)C)[C@@H](C)O [Compound 41] (I: Ac-ITVKIPADLWDWIN[Lys(Me2)]-NH2 / II: Ac-ITVKIPADLWDWIN[Lys(Me2)]-NH2; linker I:4-II:4 via X1) | 15 nM |
| Ac-TIPADLWDWINK-NH2 [Compound 34] | > 1000 nM |

Reference: PMC4869123 (Scientific Reports, 2016)
